Laboratory results published in PMC3783652 (ACS chemical biology, 2013).

Columns and labels:
[1] = target: wild type CXCL12 (stromal cell-derived factor-1/SDF-1) (UniProt P48061 22-93); experiment: NMR titration
[2] = target: CXCL12_(1), constitutively monomeric CXCL12 variant (L55C/I58C) (UniProt P48061 22-93, L55C | I58C); experiment: NMR titration

B1: 9SDNYTEE15, unsulfated Tyr12 peptide of CXCR4 (peptide)
peptide: Ac-SDNYTEE-NH2
- Kd [1]: 2100 µM
- Kd [2]: 2700 µM

B2: 18SGDYDSM24, unsulfated Tyr21 peptide of CXCR4 (peptide)
peptide: Ac-SGDYDSM-NH2
- Kd [1]: 2700 µM
- Kd [2]: 1500 µM

B3: 4ISIYTSD10, unsulfated Tyr7 peptide of CXCR4 (peptide)
peptide: Ac-ISIYTSD-NH2
- Kd [1]: 1900 µM
- Kd [2]: 1100 µM

B4: 9SDNsYTEE15, sTyr12 sulfopeptide of CXCR4 (peptide)
peptide: SDNYTEE
HELM: PEPTIDE1{[ac].S.D.N.[O=C([C@H](Cc1ccc(OS(=O)(=O)O)cc1)N[*:1])[*:2]].T.E.E.[am]}$$$$V2.0
SMILES: CC(=O)N[C@@H](CO)C(=O)N[C@@H](CC(=O)O)C(=O)N[C@@H](CC(N)=O)C(=O)N[C@@H](Cc1ccc(OS(=O)(=O)O)cc1)C(=O)N[C@H](C(=O)N[C@@H](CCC(=O)O)C(=O)N[C@@H](CCC(=O)O)C(N)=O)[C@@H](C)O
- Kd [1]: 1000 µM
- Kd [2]: 1800 µM

B5: 4ISIsYTSD10, sTyr7 sulfopeptide of CXCR4 (peptide)
peptide: ISIYTSD
HELM: PEPTIDE1{[ac].I.S.I.[O=C([C@H](Cc1ccc(OS(=O)(=O)O)cc1)N[*:1])[*:2]].T.S.D.[am]}$$$$V2.0
SMILES: CC[C@H](C)[C@H](NC(C)=O)C(=O)N[C@@H](CO)C(=O)N[C@H](C(=O)N[C@@H](Cc1ccc(OS(=O)(=O)O)cc1)C(=O)N[C@H](C(=O)N[C@@H](CO)C(=O)N[C@@H](CC(=O)O)C(N)=O)[C@@H](C)O)[C@@H](C)CC
- Kd [1]: 4300 µM
- Kd [2]: 6100 µM

B6: 18SGDsYDSM24, sTyr21 sulfopeptide of CXCR4 (peptide)
peptide: SGDYDSM
HELM: PEPTIDE1{[ac].S.G.D.[O=C([C@H](Cc1ccc(OS(=O)(=O)O)cc1)N[*:1])[*:2]].D.S.M.[am]}$$$$V2.0
SMILES: CSCC[C@H](NC(=O)[C@H](CO)NC(=O)[C@H](CC(=O)O)NC(=O)[C@H](Cc1ccc(OS(=O)(=O)O)cc1)NC(=O)[C@H](CC(=O)O)NC(=O)CNC(=O)[C@H](CO)NC(C)=O)C(N)=O
- Kd [1]: 1800 µM
- Kd [2]: 1600 µM
